The target in one assay is T1, PTH receptor 1 (Mus musculus, UniProt P41593).
T1 construct: host or cells: MC3T3-E1 subclone 4
T1 sequence (P41593 27-591): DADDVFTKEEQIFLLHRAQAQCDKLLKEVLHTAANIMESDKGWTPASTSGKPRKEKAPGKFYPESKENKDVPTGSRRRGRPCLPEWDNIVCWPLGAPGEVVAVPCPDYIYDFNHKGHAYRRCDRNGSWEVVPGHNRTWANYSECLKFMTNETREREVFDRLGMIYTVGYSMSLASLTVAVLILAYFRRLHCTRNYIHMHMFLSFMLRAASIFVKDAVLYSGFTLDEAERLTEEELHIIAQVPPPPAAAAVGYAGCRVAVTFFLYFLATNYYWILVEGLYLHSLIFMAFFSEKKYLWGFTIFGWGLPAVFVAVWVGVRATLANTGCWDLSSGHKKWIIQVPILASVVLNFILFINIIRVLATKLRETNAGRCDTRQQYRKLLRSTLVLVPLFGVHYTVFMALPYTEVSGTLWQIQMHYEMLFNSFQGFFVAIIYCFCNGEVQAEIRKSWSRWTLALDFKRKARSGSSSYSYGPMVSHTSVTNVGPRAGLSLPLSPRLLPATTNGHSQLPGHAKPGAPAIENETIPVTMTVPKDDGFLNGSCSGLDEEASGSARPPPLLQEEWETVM
Description: MC3T3-E1 cAMP efficacy assay. Format: cell-based, murine. The note with it: MC3T3-E1 cells. The method, then:
MC3T3-E1 cells were seeded at 10,000 cells/well in 96-microtiter plates and grown overnight before the efficacy assays. On the day of analysis the growth medium was carefully removed by suction. Cells were washed once with 200 μl TB/0.1% […]. The buffer was replaced with 100 μl reaction mixture (±test peptide, +100 μM IBMX) and incubated at 37° C. for 13 min. The reaction was stopped by addition of 25 μl of ice-cold 0.5 M HCl. Cells were in the following incubated on ice for 60 min. 75 μl acetate-buffer were added to each well in a 96-well cAMP FlashPlate. […] FlashPlates were incubated overnight at 4° C., emptied by suction and counted in a TopCounter.
Determinations were performed in triplicates at all doses. Standards were included as single determinations, duplicates or triplicates in each experiment, preferentially on each plate.
Efficacy was evaluated in the concentration range from […].
Concentration-dependent cAMP responses were imported into GraphPad Prism vers. 4, transformed and plotted. Curves were fitted with a function for sigmoidal dose response curve non-linear fit Y=Bottom+(Top-Bottom)/(1+10̂((LogEC50-X))) where X is the logarithm of concentration and Y is the response. Y starts at Bottom and goes to Top with a sigmoid shape. pEC50 and the maximally inducible concentration of cAMP were evaluated. Overall statistical differences were analyzed using one-way ANOVA. Post-hoc comparisons were made by the use of Fisher's Least Significance Test. Results were considered significant, when p was lower than 0.05.

Assay [1] concerns the target PTH receptor 1 on MC3T3-E1 cells (murine) (UniProt P41593). Description: cell-based or functional assay.
The next assay addresses Saos-2 PTH1R (UniProt Q03431). Description: cell-based or functional assay.
The target of another assay is CYP2D6 (Homo sapiens, UniProt P10635). Description: cell-based or functional assay.
Chain of CYP2D6 (P10635 whole entry): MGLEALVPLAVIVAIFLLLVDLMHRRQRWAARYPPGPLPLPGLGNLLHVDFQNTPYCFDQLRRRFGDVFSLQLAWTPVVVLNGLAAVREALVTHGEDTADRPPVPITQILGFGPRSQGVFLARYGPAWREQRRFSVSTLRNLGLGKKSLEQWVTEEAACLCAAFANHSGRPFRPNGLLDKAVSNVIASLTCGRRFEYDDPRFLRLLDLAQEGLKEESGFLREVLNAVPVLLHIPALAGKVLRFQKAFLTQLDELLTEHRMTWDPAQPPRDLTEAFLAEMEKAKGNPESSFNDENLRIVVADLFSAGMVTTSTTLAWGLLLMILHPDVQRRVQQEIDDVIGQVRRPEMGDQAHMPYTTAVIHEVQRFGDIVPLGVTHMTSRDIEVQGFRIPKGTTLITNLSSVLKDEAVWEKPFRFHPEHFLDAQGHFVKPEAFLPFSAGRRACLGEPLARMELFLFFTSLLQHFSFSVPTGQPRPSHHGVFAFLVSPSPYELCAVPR

The text below walks through data of patent publication US20100048462A1, “TRUNCATED PTH PEPTIDES WITH A CYCLIC CONFORMATION” (Zealand Pharma A/S, priority 2006, published 2010).

Like-named read-outs stand apart in the source and are kept apart here. Square brackets hold non-standard residues; d marks the D form. hArg = N=C(N)NCCCC[C@H](N)C(=O)O; Ac5c = NC1(C(=O)O)CCCC1; Aib = CC(C)(N)C(=O)O

With `CC[C@H](C)[C@H](NC(=O)[C@H](CCC(=O)O)NC(=O)[C@H](CO)NC(=O)[C@@H](NC(=O)[C@@H](N)CO)C(C)C)C(=O)N[C@@H](CCC(N)=O)C(=O)N[C@@H](CC(C)C)C(=O)N[C@@H](CCSC)C(=O)N[C@@H](Cc1c[nH]cn1)C(=O)N[C@@H](CC(N)=O)C(=O)N[C@@H](CC(C)C)C(=O)NCC(=O)N[C@@H](CCCCN)C(=O)N[C@@H](Cc1c[nH]cn1)C(=O)N[C@@H](CC(C)C)C(=O)N[C@@H](CC(N)=O)C(=O)N[C@@H](CO)C(=O)N[C@@H](CCSC)C(=O)N[C@@H](CCC(=O)O)C(=O)N[C@@H](CCCNC(=N)N)C(=O)N[C@H](C(=O)N[C@@H](CCC(=O)O)C(=O)N[C@@H](Cc1c[nH]c2ccccc12)C(=O)N[C@@H](CC(C)C)C(=O)N[C@@H](CCCNC(=N)N)C(=O)N[C@@H](CCCCN)C(=O)N[C@@H](CCCCN)C(=O)N[C@@H](CC(C)C)C(=O)N[C@@H](CCC(N)=O)C(=O)N[C@@H](CC(=O)O)C(=O)N[C@H](C(=O)N[C@@H](Cc1c[nH]cn1)C(=O)N[C@@H](CC(N)=O)C(=O)N[C@@H](Cc1ccccc1)C(=O)O)C(C)C)C(C)C` [SEQ ID NO: 32, reference compound], on PTH receptor 1, the “agonism on PTH receptor cAMP signalling” value is “robust cAMP response”. For the same molecule, the “Emax ± SEM [pmol/well]” value on PTH receptor 1 (maximally inducible cAMP) amounted to 4.4 ± 0.4 pmol/well.
Consider “(H-Ac5c-Val-Aib-Glu-Ile-Gln-Leu-Met-His-Gln-Har-Ala-Lys( )-Trp-Leu-Asp( )-NH2)2 (peptide)”, for which, in assay [1], the EC50, cAMP in an osteoblast-like cell line (MC3T3-E1) was 1 nM; the Emax, cAMP efficacy assay in MC3T3-E1 cells was 5 pmol/well; the agonist potency relative to SEQ ID NO: 30, cAMP in MC3T3-E1 cells (fold stronger) was 8; the pEC50, cAMP efficacy assay in MC3T3-E1 cells was 8.9 -log(M). In addition, in the assay with Saos-2 PTH1R, the Emax, cAMP efficacy assay in Saos-2 cells (33T, trifluoroacetate salt) (relative to control (SEQ ID NO: 32)) worked out at 1.1 and the pEC50, cAMP efficacy assay in Saos-2 cells (33T, trifluoroacetate salt) was 7.88 -log(M).
For the molecule “H-Ac5c-Val-Aib-Glu-Ile-Gln-Leu-Met-His-Gln-Har-Ala-Lys( )-Trp-Leu-Asp( )-NH2 (peptide)”, the CYP2D6 activity (% of vehicle), dextrorphan formation rate in human liver microsomes, 10 µM peptide in the assay with CYP2D6 was 83 % of vehicle. Besides, in assay [1], the Emax, cAMP efficacy assay in MC3T3-E1 cells worked out at 5 pmol/well and the pEC50, cAMP efficacy assay in MC3T3-E1 cells was 8 -log(M). In addition, in the assay with Saos-2 PTH1R, the Emax, cAMP efficacy assay in Saos-2 cells (30T, trifluoroacetate salt) (relative to control (SEQ ID NO: 32)) amounted to 1.04 and the pEC50, cAMP efficacy assay in Saos-2 cells (30T, trifluoroacetate salt) was 7.09 -log(M).

B1: H-Ac5c-Val-Aib-Glu-Ile-Gln-Leu-Met-His-Gln-Har-Ala-Lys-Trp-Leu-Asn-Asp-NH2 (peptide)
chain: H-[Ac5c]V[Aib]EIQLMHQ[hArg]AKWLND-NH2
SMILES: CC[C@H](C)[C@H](NC(=O)[C@H](CCC(=O)O)NC(=O)C(C)(C)NC(=O)[C@@H](NC(=O)C1(N)CCCC1)C(C)C)C(=O)N[C@@H](CCC(N)=O)C(=O)N[C@@H](CC(C)C)C(=O)N[C@@H](CCSC)C(=O)N[C@@H](Cc1c[nH]cn1)C(=O)N[C@@H](CCC(N)=O)C(=O)N[C@@H](CCCCNC(=N)N)C(=O)N[C@@H](C)C(=O)N[C@@H](CCCCN)C(=O)N[C@@H](Cc1c[nH]c2ccccc12)C(=O)N[C@@H](CC(C)C)C(=O)N[C@@H](CC(N)=O)C(=O)N[C@@H](CC(=O)O)C(N)=O
B1: the CYP2D6 activity (% of vehicle), dextrorphan formation rate in human liver microsomes, 10 µM peptide with CYP2D6 is 29 % of vehicle. For the same molecule, in the assay with CYP2D6 (record 2), the CYP2D6 activity (% of vehicle), dextrorphan formation rate in human liver microsomes, 10 µM peptide is 67 % of vehicle. Moreover, in assay [1], the EC50, cAMP in an osteoblast-like cell line (MC3T3-E1) stood at 1 nM; the Emax, cAMP efficacy assay in MC3T3-E1 cells was 4.9 pmol/well; the agonist potency relative to SEQ ID NO: 2, cAMP in MC3T3-E1 cells came to 6 fold weaker; the pEC50, cAMP efficacy assay in MC3T3-E1 cells was 9 -log(M). Moreover, in assay [1] (record 2), the Emax, cAMP efficacy assay in MC3T3-E1 cells amounted to 5.7 pmol/well and the pEC50, cAMP efficacy assay in MC3T3-E1 cells was 8.2 -log(M). Also, in the assay with Saos-2 PTH1R, the Emax, cAMP efficacy assay in Saos-2 cells (2A, acetate salt) (relative to control (SEQ ID NO: 32)) came to 0.99; the Emax, cAMP efficacy assay in Saos-2 cells (2C, chloride salt) (relative to control (SEQ ID NO: 32)) was 0.94; the Emax, cAMP efficacy assay in Saos-2 cells (2T, trifluoroacetate salt) (relative to control (SEQ ID NO: 32)) stood at 0.7; the Emax, cAMP efficacy assay in Saos-2 cells (42T, trifluoroacetate salt) (relative to control (SEQ ID NO: 32)) turned out to be 1.03. In addition, in the assay with Saos-2 PTH1R, the pEC50, cAMP efficacy assay in Saos-2 cells (2A, acetate salt) was 8.2 -log(M); the pEC50, cAMP efficacy assay in Saos-2 cells (2C, chloride salt) was 8.18 -log(M); the pEC50, cAMP efficacy assay in Saos-2 cells (2T, trifluoroacetate salt) was 8.18 -log(M); the pEC50, cAMP efficacy assay in Saos-2 cells (42T, trifluoroacetate salt) was 7.68 -log(M).

B2: H-Ac5c-Val-Aib-Glu-Ile-Gln-Leu-Met-His-Gln-Har-Ala-Lys-Trp-NH2 (peptide)
chain: H-[Ac5c]V[Aib]EIQLMHQ[hArg]AKW-NH2
SMILES: CC[C@H](C)[C@H](NC(=O)[C@H](CCC(=O)O)NC(=O)C(C)(C)NC(=O)[C@@H](NC(=O)C1(N)CCCC1)C(C)C)C(=O)N[C@@H](CCC(N)=O)C(=O)N[C@@H](CC(C)C)C(=O)N[C@@H](CCSC)C(=O)N[C@@H](Cc1c[nH]cn1)C(=O)N[C@@H](CCC(N)=O)C(=O)N[C@@H](CCCCNC(=N)N)C(=O)N[C@@H](C)C(=O)N[C@@H](CCCCN)C(=O)N[C@@H](Cc1c[nH]c2ccccc12)C(N)=O
For the molecule B2, the CYP2D6 activity (% of vehicle), dextrorphan formation rate in human liver microsomes, 10 µM peptide in the assay with CYP2D6 is 22 % of vehicle. Also, in assay [1], the Emax, cAMP efficacy assay in MC3T3-E1 cells is 4.5 pmol/well and the pEC50, cAMP efficacy assay in MC3T3-E1 cells is 8.4 -log(M). For the same molecule, in the assay with Saos-2 PTH1R, the Emax, cAMP efficacy assay in Saos-2 cells (31T, trifluoroacetate salt) (relative to control (SEQ ID NO: 32)) was 1.07 and the pEC50, cAMP efficacy assay in Saos-2 cells (31T, trifluoroacetate salt) was 7.66 -log(M).

B3: H-Ac5c-Val-Aib-Glu-Ile-Gln-Leu-Met-His-Gln-Har-Ala-Lys-Trp-Leu-Asn-Asn-NH2 (peptide)
chain: H-[Ac5c]V[Aib]EIQLMHQ[hArg]AKWLNN-NH2
SMILES: CC[C@H](C)[C@H](NC(=O)[C@H](CCC(=O)O)NC(=O)C(C)(C)NC(=O)[C@@H](NC(=O)C1(N)CCCC1)C(C)C)C(=O)N[C@@H](CCC(N)=O)C(=O)N[C@@H](CC(C)C)C(=O)N[C@@H](CCSC)C(=O)N[C@@H](Cc1c[nH]cn1)C(=O)N[C@@H](CCC(N)=O)C(=O)N[C@@H](CCCCNC(=N)N)C(=O)N[C@@H](C)C(=O)N[C@@H](CCCCN)C(=O)N[C@@H](Cc1c[nH]c2ccccc12)C(=O)N[C@@H](CC(C)C)C(=O)N[C@@H](CC(N)=O)C(=O)N[C@@H](CC(N)=O)C(N)=O
On to B3, for which the CYP2D6 activity (% of vehicle), dextrorphan formation rate in human liver microsomes, 10 µM peptide with CYP2D6 was 21 % of vehicle. Also, in assay [1], the Emax, cAMP efficacy assay in MC3T3-E1 cells was determined as 5.5 pmol/well; the agonist potency relative to SEQ ID NO: 2, cAMP in MC3T3-E1 cells lay within 2 to 3 fold weaker; the pEC50, cAMP efficacy assay in MC3T3-E1 cells was 8.6 -log(M). In addition, in the assay with Saos-2 PTH1R, the Emax, cAMP efficacy assay in Saos-2 cells (3T, trifluoroacetate salt) (relative to control (SEQ ID NO: 32)) is 1.06 and the pEC50, cAMP efficacy assay in Saos-2 cells (3T, trifluoroacetate salt) was 8.04 -log(M).
